Legend:
Assay in all cases: holdup assay
Parameters in all cases: key: below the threshold = too weak to quantify, mostly under pKd 3.1 to 4
Conditions in all cases: plain residues with an end cap or a label only (N-terminal biotin on a linker: ado-ado)
[1] = molecular target: TJP1_3, Q07157
[2] = molecular target: LDB3, O75112
[3] = molecular target: Inadl_8, Q8NI35
[4] = molecular target: T1, LNX2_2, Q8N448
T1 sequence (Q8N448 334-432, limits assumed, looked up): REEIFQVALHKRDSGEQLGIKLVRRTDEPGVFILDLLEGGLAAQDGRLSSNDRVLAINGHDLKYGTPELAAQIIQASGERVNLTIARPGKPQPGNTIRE

[5] = molecular target: GRIP2_5, Q9C0E4
[6] = molecular target: T2, MPDZ_12, O75970
T2 sequence (O75970 1857-1958, limits assumed, looked up): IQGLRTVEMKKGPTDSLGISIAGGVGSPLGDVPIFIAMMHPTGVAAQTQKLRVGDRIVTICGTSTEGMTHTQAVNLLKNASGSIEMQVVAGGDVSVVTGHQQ

[7] = molecular target: DLG4_1, P78352
[8] = molecular target: LIMK2, P53671
[9] = molecular target: T3, MPP2, Q14168
T3 sequence (Q14168 180-250, limits assumed, looked up): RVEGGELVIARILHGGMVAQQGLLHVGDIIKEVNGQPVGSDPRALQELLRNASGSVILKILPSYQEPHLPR

[10] = molecular target: T4, APBA2_2, Q99767
T4 sequence (Q99767 654-744, limits assumed, looked up): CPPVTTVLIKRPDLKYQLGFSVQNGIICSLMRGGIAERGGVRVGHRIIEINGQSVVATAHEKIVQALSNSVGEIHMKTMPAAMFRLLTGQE

[11] = molecular target: T5, TJP3_3, O95049
T5 sequence (O95049 375-456, limits assumed, looked up): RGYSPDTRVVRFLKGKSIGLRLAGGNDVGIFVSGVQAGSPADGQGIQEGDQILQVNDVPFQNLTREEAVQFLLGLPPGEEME

[12] = molecular target: T6, DLG3_2, Q92796
T6 sequence (Q92796 221-321, limits assumed, looked up): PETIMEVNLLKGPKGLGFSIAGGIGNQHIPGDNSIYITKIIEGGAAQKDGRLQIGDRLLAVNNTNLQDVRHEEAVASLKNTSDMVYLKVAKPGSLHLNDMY

[13] = molecular target: GRIP2_4, Q9C0E4
[14] = molecular target: FRMPD2_3, Q68DX3
[15] = molecular target: PTPN3, P26045
[16] = molecular target: T7, SHANK1, Q9Y566
T7 sequence (Q9Y566 658-767, limits assumed, looked up): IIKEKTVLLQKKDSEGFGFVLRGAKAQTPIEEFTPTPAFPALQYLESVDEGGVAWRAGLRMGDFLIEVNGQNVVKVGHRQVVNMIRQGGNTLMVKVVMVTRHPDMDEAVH

[17] = molecular target: GRIP2_3, Q9C0E4
[18] = molecular target: MAGI3_2, Q5TCQ9
[19] = molecular target: T8, PDZD7_3, Q9H5P4
T8 sequence (Q9H5P4 857-944, limits assumed, looked up): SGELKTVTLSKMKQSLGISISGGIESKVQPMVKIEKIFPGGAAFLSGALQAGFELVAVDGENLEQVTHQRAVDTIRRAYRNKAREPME

[20] = molecular target: MAGI2_4, Q86UL8
[21] = molecular target: Inadl_1, Q8NI35
[22] = molecular target: CASK, O14936
[23] = molecular target: GRIP2_6, Q9C0E4
[24] = molecular target: T9, CARD11, Q9BXL7
T9 sequence (Q9BXL7 662-765, limits assumed, looked up): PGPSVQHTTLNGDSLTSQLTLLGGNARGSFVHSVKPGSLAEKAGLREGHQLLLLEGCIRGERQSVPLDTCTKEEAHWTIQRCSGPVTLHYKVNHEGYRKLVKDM

[25] = molecular target: MAGI2_6, Q86UL8
[26] = molecular target: T10, DLG3_3, Q92796
T10 sequence (Q92796 374-475, limits assumed, looked up): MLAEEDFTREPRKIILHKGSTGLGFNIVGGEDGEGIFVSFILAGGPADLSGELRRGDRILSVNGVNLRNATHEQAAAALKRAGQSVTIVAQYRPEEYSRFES

[27] = molecular target: T11, DFNB31_2, Q9P202
T11 sequence (Q9P202 274-371, limits assumed, looked up): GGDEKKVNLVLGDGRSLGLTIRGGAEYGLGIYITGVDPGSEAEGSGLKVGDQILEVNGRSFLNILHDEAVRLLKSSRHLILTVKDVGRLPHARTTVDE

[28] = molecular target: IL16_3, Q14005
Chain of IL16_3, Q14005 (Q14005 1107-1207): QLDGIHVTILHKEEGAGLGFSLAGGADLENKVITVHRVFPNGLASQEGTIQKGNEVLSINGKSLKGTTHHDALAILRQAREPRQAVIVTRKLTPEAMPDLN

Chain of PTPN3, P26045 (P26045 505-587): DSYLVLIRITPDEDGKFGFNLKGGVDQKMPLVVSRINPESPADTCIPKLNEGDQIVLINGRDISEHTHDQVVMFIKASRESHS
Chain of LDB3, O75112 (O75112 1-94): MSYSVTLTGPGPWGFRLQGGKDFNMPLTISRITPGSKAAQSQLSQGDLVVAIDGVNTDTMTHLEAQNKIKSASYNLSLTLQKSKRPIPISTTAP
Chain of DLG4_1, P78352 (P78352 62-152): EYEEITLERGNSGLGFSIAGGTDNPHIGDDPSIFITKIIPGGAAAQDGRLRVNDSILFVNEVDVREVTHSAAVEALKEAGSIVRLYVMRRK
Chain of LIMK2, P53671 (P53671 143-248): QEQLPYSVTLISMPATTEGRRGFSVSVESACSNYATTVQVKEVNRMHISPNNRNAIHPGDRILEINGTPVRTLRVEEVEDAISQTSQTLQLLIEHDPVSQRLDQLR
Chain of MAGI2_6, Q86UL8 (Q86UL8 1141-1229): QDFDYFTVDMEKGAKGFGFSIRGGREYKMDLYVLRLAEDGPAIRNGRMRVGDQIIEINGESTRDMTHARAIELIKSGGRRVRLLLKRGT
Chain of Inadl_8, Q8NI35 (Q8NI35 1425-1530): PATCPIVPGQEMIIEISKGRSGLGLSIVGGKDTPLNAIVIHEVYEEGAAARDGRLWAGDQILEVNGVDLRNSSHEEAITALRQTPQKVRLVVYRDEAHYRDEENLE
Chain of MAGI3_2, Q5TCQ9 (Q5TCQ9 398-503): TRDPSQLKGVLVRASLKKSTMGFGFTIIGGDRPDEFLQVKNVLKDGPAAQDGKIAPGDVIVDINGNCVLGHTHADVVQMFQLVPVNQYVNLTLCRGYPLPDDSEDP
Chain of FRMPD2_3, Q68DX3 (Q68DX3 1073-1166): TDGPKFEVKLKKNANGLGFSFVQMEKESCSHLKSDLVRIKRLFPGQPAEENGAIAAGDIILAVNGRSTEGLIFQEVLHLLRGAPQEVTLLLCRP
Chain of GRIP2_3, Q9C0E4 (Q9C0E4 238-339): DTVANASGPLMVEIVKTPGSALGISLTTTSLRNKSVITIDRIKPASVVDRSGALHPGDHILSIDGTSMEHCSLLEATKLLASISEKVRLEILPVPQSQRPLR
Chain of TJP1_3, Q07157 (Q07157 416-512): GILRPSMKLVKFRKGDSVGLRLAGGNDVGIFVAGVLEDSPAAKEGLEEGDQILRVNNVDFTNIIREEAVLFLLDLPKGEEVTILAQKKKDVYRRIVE
Chain of CASK, O14936 (O14936 487-570): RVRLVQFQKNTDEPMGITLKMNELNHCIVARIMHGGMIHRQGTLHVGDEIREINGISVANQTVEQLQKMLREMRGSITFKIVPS
Chain of Inadl_1, Q8NI35 (Q8NI35 113-229): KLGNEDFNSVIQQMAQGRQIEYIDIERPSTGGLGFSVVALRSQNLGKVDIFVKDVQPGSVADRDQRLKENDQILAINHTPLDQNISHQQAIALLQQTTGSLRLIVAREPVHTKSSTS
Chain of GRIP2_5, Q9C0E4 (Q9C0E4 544-642): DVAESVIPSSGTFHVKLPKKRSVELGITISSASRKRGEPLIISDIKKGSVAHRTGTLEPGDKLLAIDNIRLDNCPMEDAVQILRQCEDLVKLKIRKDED
Chain of MAGI2_4, Q86UL8 (Q86UL8 772-865): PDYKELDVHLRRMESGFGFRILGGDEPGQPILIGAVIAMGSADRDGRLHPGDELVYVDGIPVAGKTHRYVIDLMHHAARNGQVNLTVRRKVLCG
Chain of GRIP2_4, Q9C0E4 (Q9C0E4 446-548): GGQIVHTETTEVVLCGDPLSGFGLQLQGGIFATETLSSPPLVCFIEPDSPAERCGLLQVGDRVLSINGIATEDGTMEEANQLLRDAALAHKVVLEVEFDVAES
Chain of GRIP2_6, Q9C0E4 (Q9C0E4 648-740): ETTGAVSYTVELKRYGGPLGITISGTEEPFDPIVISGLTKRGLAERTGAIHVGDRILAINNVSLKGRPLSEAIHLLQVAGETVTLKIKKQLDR

Binder	pKd [1]	pKd [2]	pKd [3]	pKd [4]	pKd [5]	pKd [6]	pKd [7]	pKd [8]	pKd [9]	pKd [10]	pKd [11]	pKd [12]	pKd [13]	pKd [14]	pKd [15]	pKd [16]	pKd [17]	pKd [18]	pKd [19]	pKd [20]	further results
SKSNFGSEPL [KIF17, Q9P2E2]	below the threshold	below the threshold	below the threshold	below the threshold	below the threshold	below the threshold	below the threshold	below the threshold	below the threshold	below the threshold	below the threshold	below the threshold	below the threshold	below the threshold	3.95	below the threshold	below the threshold	below the threshold	below the threshold	below the threshold	pKd [21]: below the threshold; pKd [22]: below the threshold; pKd [23]: below the threshold; pKd [24]: below the threshold; pKd [25]: below the threshold; pKd [26]: below the threshold; pKd [27]: below the threshold; pKd [28]: below the threshold
YYKRPVQEWV [MMP24, Q9Y5R2]	4.34	below the threshold	3.69	4.86	below the threshold	4.39	below the threshold	below the threshold	below the threshold	below the threshold	5	4.23	below the threshold	3.52	3.88	below the threshold	3.48	3.85	below the threshold	4.09	pKd [21]: below the threshold; pKd [22]: below the threshold; pKd [23]: below the threshold; pKd [24]: below the threshold; pKd [25]: 4.31; pKd [26]: below the threshold; pKd [27]: below the threshold; pKd [28]: below the threshold

The next lines start with results.

pKd [1]	pKd [2]	pKd [3]	pKd [4]	pKd [5]	pKd [6]	pKd [7]	pKd [8]	pKd [9]	pKd [10]	pKd [11]	pKd [12]	pKd [13]	pKd [14]	pKd [15]	pKd [16]	pKd [17]	pKd [18]	pKd [19]	pKd [20]	Binder	further results
below the threshold	5.26	below the threshold	below the threshold	below the threshold	below the threshold	below the threshold	below the threshold	below the threshold	below the threshold	below the threshold	below the threshold	below the threshold	below the threshold	4.25	below the threshold	below the threshold	below the threshold	below the threshold	below the threshold	DTTVPESEDL [MYOZ2, Q9NPC6]	pKd [21]: below the threshold; pKd [22]: below the threshold; pKd [23]: below the threshold; pKd [24]: below the threshold; pKd [25]: 4.11; pKd [26]: below the threshold; pKd [27]: below the threshold; pKd [28]: below the threshold
below the threshold	below the threshold	4.33	3.8	below the threshold	below the threshold	3.51	below the threshold	below the threshold	below the threshold	below the threshold	3.85	below the threshold	below the threshold	4.36	4.88	below the threshold	5.19	4.28	3.91	LPHGHSTTRV [NLGN4X, Q8N0W4]	pKd [21]: below the threshold; pKd [22]: below the threshold; pKd [23]: below the threshold; pKd [24]: below the threshold; pKd [25]: below the threshold; pKd [26]: 4.27; pKd [27]: below the threshold; pKd [28]: below the threshold
